From the supplement of paper PMC9170038

Tested on: MS2 coat protein
Test: apparent KD of MS2 coat protein; higher = weaker reporter binding
Conditions: Eterna round: R107
In short: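 With or without constant ligand, designed RNA switches in 100 mM Tris-HCl pH 7.5, 80 mM KCl and 4 mM MgCl2 were titrated with SNAP-549-labelled MS2 coat protein. Concentrations went up in twofold steps from 0.7 or 1.5 nM to 3 µM. The switches had been transcribed on-chip from Illumina sequencing clusters, and apparent KD is the per-design median of normalised cluster binding-curve fits.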

[1] = input ligand: theophylline 20 uM
[2] = input ligand: theophylline 2 mM
[3] = input ligand: tryptophan 2.4 mM

Sequence | apparent KD of MS2 coat protein (input ligand: arginine 13.2 mM) [µM] | apparent KD of MS2 coat protein [1] [µM] | apparent KD of MS2 coat protein [2] [µM] | apparent KD of MS2 coat protein (input ligand: none) [µM] | apparent KD of MS2 coat protein [3] [µM]
AGACUGUAAAGUCUACCGGUCAACAAUAAUCGAGGACCGGUACGGCCGCCACUCGAUGUGAUAUACACAUGAGGAUCACCCAUGU [Tryptophan A 16] | 0.0172 | 0.0226 | 0.0197 |  | 
AAACAUGAGGAUCACCCAUGUGCUCCUGUCCGAGGACCGGUACGGCCGCCACUCGGUUCUCGGGAGGAUGGUCAAAGACUAUCCA [Omei Trp A SS B v10] | 0.0607 | 0.0447 | 0.0578 | 0.0506 | 0.0488
UAAACUACACAUGAGGAUCACCCAUGUGGCCGAGGACCGGUACGGCCGCCACUCGUGUGUUAAUAAUAGAACUGCAAGGUUCUGU [Enindidiso] | 0.0756 | 0.228 | 0.272 |  | 
UCGAAUGCGGCGGCCGCCACUCGCGGAUAACGAUAGCUUAACAUGAGGAUCACCCAUGUGUCAUGGAGGACCGGGCCCAUACGGU [kmkmullin] | 0.0135 | 0.0232 | 0.0187 | 0.017 | 0.0143
CCGGCCGCAUGAAGGAGCGCACAGCGCUCGCACAUGAGGAUCACCCAUGUAAAUGGGUGCGUGCAGGUAGGUCGCAUGCAGGCAA [Lesobete] | 0.133 | 0.544 | 0.671 | 0.313 | 0.472
ACCUACACGGAGACGUGUAGGAGUAAUGAUACCAGCAUGGAGACAUGCCCUUGGCAGCGUUACAUGAGGAUCACCCAUGUACGUU [ETHA #3] | 0.0104 | 0.0151 |  |  | 0.0102
GCACCAGGUACGGAUACCAGCUGCCAGCGUUACAUGAGGAUCACCCAUGUGAUCUGAUAUAGCCCUUGGCAGCUGUACCUGGUGC [SSThB NP+V+V2 #3 +-Same Structure] | 0.0434 | 0.416 |  |  | 0.0496
CCUGCGUUUCUUUUCUUUCGCAGGAAUGAUACCAGUAGGGAAACCUACCCUUGGCAGCAUGGGACAUGAGGAUCACCCAUGUAAU [SSThA NP+V+V2 #2] | 0.255 | 0.346 |  |  | 0.408
ACUAGUUGUGCAGAUACCAGACAUGAGGAUCACCCAUGUUUGGGAUCUAAUGAUCAUCCUGUCCCUUGGCAGCUGUACAUCUAGA [Omei Theo B Exc v2] | 0.0519 | 0.234 |  |  | 0.0899
ACGCUGCAUAGGAAAACUAUGUAGCGAAAUCGAGGACCGGUACGGCCGCCACUCGUCCUCAACAUGAGGAUCACCCAUGUAAUAA [Mat - Exclusion - Trytophan A - D8] | 0.0208 | 0.0237 | 0.0228 |  | 
UCAGUGCAAGGAAGGAGCGGGUACAUGAGGAUCACCCAUGUGCAAGUGGUGAGCGUCCGUGCCCAGGUAGGUCGCCUAGCCUGGU [Quisso] | 0.056 | 0.18 | 0.149 | 0.109 | 0.101
UAUAUAUAUAUGGAUACCAGCAGAGAAAACGUUUAUCCUAACAUGAGGAUCACCCAUGUAUGCCCUUGGCAGCUGUGUAUAUAUA [8.H] | 0.0167 | 0.0265 |  |  | 0.0192
UCCAGACAUGAGGAUCACCCAUGUUGUGAUACCAGAACCGUGGAGUUCCCUUGGCAGCACUAAGAAGUUCCUGGAUCAGCUAGCG [theeternabot_sameState_MS2_Theo_A_9] | 0.0299 | 0.0362 |  |  | 0.03
GCACCAGGUACGGAUACCAGACUCUGCCGAUUGGGUGAACAUGAGGAUCACCCAUGUUAGGUCCCUUGGCAGCCGUACCUGGUGC [#18 Exclusion-TheophyllineB] | 0.0264 | 0.0735 |  |  | 0.0303
ACAUGAGGAUCACCCAUGUUCCUCAUUGAUACCAGUGAAUUUAGACGCCCUUGGCAGCGAGUUUUUUUAUAAGAUUUUUUUUUUU [6.I] | 0.239 | 0.839 |  |  | 0.916
UGACAUUGCUCAGAUACCAGACAUGAGGAUCACCCAUGUACCAAGGUAAAGAAAUAACGUGUCCCUUGGCAGCUGAGCAAUGUCU [TheoBX 1 #MS2Left #Theo2] | 0.0106 | 0.0148 |  |  | 0.0104
GCGUGUUAUAGUCAUCGUGAGCGUCCAUCCCGAGGACCGGUACGGCCGCCACUCGCCACAGGACAUGAGGAUCACCCAUGUUAUG [theeternabot_exclusion_MS2_Trp_A_3] | 0.00962 | 0.0168 | 0.0138 |  | 

Sequence | apparent KD of MS2 coat protein (input ligand: arginine 13.2 mM) [µM] | apparent KD of MS2 coat protein [1] [µM] | apparent KD of MS2 coat protein [2] [µM] | apparent KD of MS2 coat protein (input ligand: none) [µM] | apparent KD of MS2 coat protein [3] [µM]
AAGACGGUCGGAAGGAGCGGUACAUGAGGAUCACCCAUGUACCUCUGGGCAUCCGUAGUGUGCCAGGUAGGUCGCCGAUUGCGGG [Esorbevege] | 0.0127 | 0.0233 | 0.0135 | 0.0117 | 0.0121
AUAGUCUUGAGUGAUACCAGACUACAUGAGGAUCACCCAUGUUUCUUUUGGUUAUCAUGUGUCCCUUGGCAGCACGCAUGUAUAG [JR_ExcTheophyB_Sub014] | 0.0175 | 0.028 |  |  | 0.0126
UAUAUAUAUAUUGAUACCAGCAGAGAAAACGUUUAUCCUAACAUGAGGAUCACCCAUGUAUGCCCUUGGCAGCGAUAUAUAUAUA [8.C] | 0.0222 | 0.0313 |  |  | 0.0217
CUAUUGAUAGCGGCCGCCACUUACUCAUGAGGUAACAACAUGAGGAUCACCCAUGUUUGAGGAUCAAGGACCGGGCUAUUGAUAG [AstrosSSTryB#13] | 0.03 | 0.0339 | 0.0309 | 0.0276 | 0.0238
AGGACAUGAGGAUCACCCAUGUACACUGAAGGAGCGUCGAGAACGACAGGUAGGUCGCAGGCUAAGGAAGGUGAUGCUCAAGAAG [Exclusion Arginine A GF6] | 0.0282 | 0.0409 | 0.0298 | 0.0262 | 0.0271
ACAUGAGGAUCACCCAUGUGAUGGCGCGAUACCAGCUGAUCCCGUGGCCCUUGGCAGCGUCCGGUGUGGUCCGGCGGGUGGGACG [khkmullin] | 0.0914 | 0.0317 | 0.031 | 0.0208 | 0.0242
AUAACAUGAGGAUCACCCAUGUAAGCAGAUACCAGCUAGGAAACUAGCCCUUGGCAGCUGCAAUCCUCAUGUAUUGCAGCUGCAA [(M1)-(M2)-(T1)-(T2)-(M)'-(T)'_Design1] | 0.0215 | 0.0262 |  |  | 0.0153
AGGUAUGAUCCGGAUACCAGCGAACAUGAGGAUCACCCAUGUGACCUGAGAUAGGCUCUACGCCCUUGGCAGCCGCGAUCGCAGA [Same State Theophylline B GF11] | 0.0101 | 0.0142 | 0.00963 | 0.0114 | 0.0125
CUCUGAGUGAGUAAUCACUCAGAGGCGGAUACCAGCGAGGUCCAUCGCCCUUGGCAGCCGAACAUGAGGAUCACCCAUGUCGGUA [#1 Same State - Theophylline A Attempt #24 (HarryS)] | 0.00882 | 0.0122 |  |  | 0.0117
CCCUCCAGAACGGCCGCCACUAAAGGGUUGUGUGCGACUCCGGAACAUGAGGAUCACCCAUGUCUUAGGACCGGGUUCCCUUCUA [theeternabot_sameState_MS2_Trp_B_30] | 0.0589 | 0.0819 | 0.0822 |  | 
AUGUCAUUGGUGUAGCUGUGAAAUGGCGAUACCAGCGUGGAAACACGCCCUUGGCAGCGCCAAAACAUGAGGAUCACCCAUGUUA [Pardubice] | 0.0362 | 0.135 |  |  | 0.08
GACCACAUGAGGAUCACCCAUGUCUUGGUCCGAGGACCGGUACGGCCGCCACUCGAGAGCCGUACAAAUAAACGGAGUGCCAUCA [theeternabot_sameState_MS2_Trp_A_31] | 0.0125 | 0.0196 | 0.0155 |  | 
UGUAUGUGAUCUGAUACCAGUCCAACUGGUAAAACCUGAGGAUCACCCGGGUAAAAUUGGGACCCUUGGCAGCAGAUCGCAUACU | 0.201 | 0.285 | 0.026 | 0.475 | 0.683
UACAUGAGGAUCACCCAUGUAUAGAGGGAUACCAGUGUCAGUGAGCACCCUUGGCAGCCCGCGAACAAUGGGUGCGCUAUAUAGU [#20 Exclusion-TheophyllineA] | 0.0182 | 0.0468 |  |  | 0.028
GUAGGUCUCAUGGGUGGACCUACACUGGAAGGAGCGAGCGAAAGCUCAGGUAGGUCGCCAGAAACAUGAGGAUCACCCAUGUAAU [(A)''-(M)'-(A)'-(Arg1)-(Arg2)-(M1)-(M2)_Design1] | 0.0723 | 0.144 | 0.288 | 0.36 | 0.32
ACCCAUAAUUGGGCGGGUGGAUUGAGUGAUACCAGUCGUAUACAUGACCCUUGGCAGCACCGACAUGAGGAUCACCCAUGUGCCA [Same State Theophylline A GF23] | 0.0259 | 0.0384 |  |  | 0.046
